Ends that are not written are not given here.
How the values were obtained:
[1] = tested on: PTH receptor (rat osteosarcoma cell line UMR106); experiment: adenylate cyclase stimulation / cAMP in UMR106 cells (PTH receptor activation); format: cell-based; details: for EC50: cAMP, 5 minutes, 1 mM IBMX, read-out: EC-50 (effective concentration)
Procedure: The peptide was then desalted and partially purified on a SepPak column. Individual peaks were isolated and analyzed by electrospray mass spectrometry to determine the composition.
PTH concentrations were determined by OD280 using an extinction coefficient of 6600 for the recombinant peptide and 5500 for the synthetic peptide. […] Activation of the PTH receptor leads to an intracellular rise in cAMP concentration.
The UMR106 cells were seeded at about 2.5×10^5 per well in a 48 well dish and allowed to grow to confluence. Assays were performed on cells 3-5 days postconfluence. The media (Dulbecco's modified Eagle's medium, DMEM, with fetal calf serum) was removed, and 1 mL of fresh media was applied. PTH (recombinant or synthetic) at various concentrations and 3-isobutyl-1-methyl xanthine (IBMX) at 1 mM final concentration were then added to each well of the plate, which was then incubated for 5 minutes at room temperature. The media was then removed and the cells quickly washed with ice cold PBS. The cells were then extracted twice with 1 mL of absolute ethanol. The two extractions were combined and the ethanol removed by evaporation. The extract was then redissolved in 1 mL of scintillation proximity buffer (SPA buffer) (Amersham, Arlington Heights, Ill.). The cAMP concentration was determined by assay using a scintillation proximity assay (SPA) kit available from Amersham.

[2] = biological target: T1, PTH receptor (rat, UniProt P25961)
Target sequence in this assay (P25961 27-591): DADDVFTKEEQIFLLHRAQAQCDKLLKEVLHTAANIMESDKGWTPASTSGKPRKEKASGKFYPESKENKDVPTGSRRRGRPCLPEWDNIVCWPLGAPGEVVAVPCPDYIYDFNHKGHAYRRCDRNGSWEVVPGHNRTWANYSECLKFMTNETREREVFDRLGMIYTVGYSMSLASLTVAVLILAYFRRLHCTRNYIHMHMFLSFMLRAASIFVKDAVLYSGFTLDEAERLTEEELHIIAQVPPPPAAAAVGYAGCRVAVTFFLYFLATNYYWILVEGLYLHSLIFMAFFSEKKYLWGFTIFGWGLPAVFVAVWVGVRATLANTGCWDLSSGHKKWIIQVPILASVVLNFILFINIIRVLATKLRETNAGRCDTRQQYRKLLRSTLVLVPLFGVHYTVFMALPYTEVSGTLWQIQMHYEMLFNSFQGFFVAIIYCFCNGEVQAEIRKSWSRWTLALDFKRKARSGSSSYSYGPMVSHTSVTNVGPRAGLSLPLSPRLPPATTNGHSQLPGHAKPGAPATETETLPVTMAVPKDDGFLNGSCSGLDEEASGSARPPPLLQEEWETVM

[3] = in vitro and in vivo studies; cited from earlier work
[4] = Stability when incubated with stripped stratum corneum; format: in vitro ADME, human
[5] = In vitro electrotransport flux of the PTH analogs; details: retro-inverso versions, 1 mM, pH 5.0, 0.1 mA/cm^2, 32° C, BSA/Tween 20 receptor
[6] = Circular dichroism in varying trifluoroethanol concentrations, PTH analogs; format: physicochemical; parameters: [θ]222 (mean residue ellipticity): unit not given here; details: for [θ]222 (mean residue ellipticity): pH 6.5 10 mM cacodylate, 20° C; for helicity: 30% (v/v) TFE
Procedure: The trifluoroethanol (TFE) circular dichroism studies were done using an AVIV Associates, Inc. Model 62DS Circular Dichroism Spectrometer. Protein concentrations were determined from absorbance readings using calculated extinction coefficients for the analogs in 10 mM ionic buffer. TFE titrations were done from 0 to 50% TFE, scanning from 250 to 200 nm at 20° C. for each TFE sample.

[7] = in vitro skin permeation; cited from earlier work
[8] = biological target: T1, PTH receptor; experiment: Kd reported in the PTH analog activity assay on UMR106 cells; the method used for the Kd is not described
[9] = biological target: PTH receptor (rat) (UniProt P25961)
PTH receptor (rat), sequence (P25961 27-591): as above

Wild-type PTH: wild-type, parent PTH polypeptide, FIG. 1A (SEQ ID NO:6), 34 amino acid residues [reference compound]
EC50 ([1]; UMR106 cells): 4.4 nM

Synthetic PTH having the wild-type sequence (ligand)
stimulation of adenylate cyclase (intracellular cAMP, scintillation proximity assay) in UMR106 cells [2]: 4.4 nM

insulin: insulin, cited electrotransport study
transdermal delivery via electrotransport [3]: possible

PTH analog 1: FIG. 1B (SEQ ID NO:7): Met8Leu, Leu15Arg, Met18Leu, Glu19Arg, Glu22Arg, Gln29Lys, Phe34Tyr, homoserine lactone at the C-terminus
stability when incubated with stripped stratum corneum [4]: not stable
median mass flux (95% confidence interval) ([5]; 95% CI: analog 1 0.1 to 0.7, analog 2 2.1 to 4.2): 0.3 μg cm^-2 h^-1
average mass flux ± sd ([5]; sd: analog 1 ±2.3, analog 2 ±3.7): 1.4 μg cm^-2 h^-1
[θ]222 (mean residue ellipticity) ([6]; 0% TFE): -4205
[θ]222 (mean residue ellipticity) ([6]; 10% TFE): -9333
[θ]222 (mean residue ellipticity) ([6]; 20% TFE): -23098
helicity [6]: about 80%
[θ]222 (mean residue ellipticity) ([6]; 30% TFE): -26334
[θ]222 (mean residue ellipticity) ([6]; 40% TFE): -27580
[θ]222 (mean residue ellipticity) ([6]; 50% TFE): -27705
EC50 ([1]; UMR106 cells): 0.9 nM

NC(=O)CC[C@@H]1NC(=O)[C@H](Cc2ccccc2)NC(=O)[C@H](Cc2ccc(O)cc2)NC(=O)[C@@H](N)CSSC[C@@H](C(=O)N2CCC[C@H]2C(=O)N[C@@H](CCCN=C(N)N)C(=O)NCC(N)=O)NC(=O)[C@H](CC(N)=O)NC1=O [vasopressin]
transdermal delivery via electrotransport [3]: possible

PTH analog 3: amino acid sequence of FIG. 1D (SEQ ID NO:9); recombinantly synthesized (SVSEIQLMHNLGKHLNSMERPEWLRKKPQDVHNF)
[θ]222 (mean residue ellipticity) ([6]; 0% TFE): -3867
[θ]222 (mean residue ellipticity) ([6]; 10% TFE): -6479
[θ]222 (mean residue ellipticity) ([6]; 20% TFE): -12329
helicity [6]: about 15%
[θ]222 (mean residue ellipticity) ([6]; 30% TFE): -15161
[θ]222 (mean residue ellipticity) ([6]; 40% TFE): -15191
[θ]222 (mean residue ellipticity) ([6]; 50% TFE): -15395
helix in the absence of the helix-inducing TFE (in words) ([6]; no TFE): essentially devoid of helix
activity (ability to stimulate adenylate cyclase) ([1]; UMR106 cells): no measurable activity

NC(=O)[C@@H]1CCCN1C(=O)[C@H](Cc1cnc[nH]1)NC(=O)[C@@H]1CCC(=O)N1 [thyrotropin releasing hormone]
electrotransport flux compared with passive diffusional flux [7]: higher than passive diffusional flux

B1: RPTH: recombinant PTH (RPTH), HPLC purified or crude Sep-Pak purified (peptide, UniProt P01270 32-115, looked up)
Parathyroid hormone: SVSEIQLMHNLGKHLNSMERVEWLRKKLQDVHNFVALGAPLAPRDAGSQRPRKKEDNVLVESHEKSLGEADKADVNVLTKAKSQ
adenylate cyclase stimulatory ability, crude Sep-Pak purified vs HPLC purified ([1]; crude Sep-Pak purified sample compared with HPLC purified RPTH): no significant difference in adenylate cyclase stimulatory ability

B2: PTH analog 1 (1-35) (ligand)
peptide: SVSEIQLLHNLGKHRNSLRRVRWLRKKLKDVHNY-{HSL}
Kd [8]: 1.5 nM
stimulation of adenylate cyclase (intracellular cAMP, scintillation proximity assay) in UMR106 cells [9]: 0.9 nM

Reference: US6333189A, “Method of making an electrotransport device” (ALZA Corporation, priority 1997, dated 2001)
